Results reported in patent publication US6602854B1, “Branched multimeric Apo A-I agonist compounds” (priority 1997, dated 2003).
Where no end group is shown, it is not given here. [ ]: non-standard residue; d: D form. Nal = non-natural residue; Aib = CC(C)(N)C(=O)O

Tests used:
[1] = Circular dichroism: degree of helicity (free, SUVs, micelles, TFE); settings: for He (%) free: percent helicity of free, unbound peptide; for He (%) SUVs: percent helicity of peptide-SUV complexes; for He (%) TFE: percent helicity of peptide-TFE solution; for He (%) mics: percent helicity of peptide-micelle complexes
Description: Far UV circular dichroism spectra were recorded between 190 and 260 nm (in 0.5 nm or 0.2 nm increments) with a AVIV62DS spectrometer (AVIV Associates, Lakewood, N.J., USA) equipped with a thermoelectric cell holder and sample changer. The instrument was calibrated with (+)-10-camphoric acid. Between one and three scans were collected for each sample, using 10 cm, 5 cm, 1 cm and 0.1 cm path length quartz Suprasil cells, respectively, for peptide concentrations of 10^−7 M to 10^−4 M. The bandwidth was fixed at 1.5 nm and the scan speed to 1 s per wavelength step. The reported data are the mean of at least 2 or 3 independent measurements.
After background substraction, spectra were converted to molar ellipticity (θ) per residue in deg. […] dmol^−1. The peptide concentration was determined by amino acid analysis and also by absorption spectrometry on a Perkin Elmer Lambda 17 UV/Visible spectrophotometer when the peptide contained a chromophore (tryptophane, dansyl, naphtylalanine).
CD spectra were obtained with free, unbound peptide (5 μM in 5 mM phosphate buffer, pH 7.4); with peptide-SUV complexes (20:1 EPC:Chol., Ri=30 and Ri=50); with peptide-micelle complexes (1-myristoyl-2-hydroxy-sn-glycero-3-phosphatidyl choline, Ri=100); and with free, unbound peptide in the presence of 2,2,2-trifluoroethanol (TFE) (5 μM peptide, 90% vol TFE).
The SUVs were obtained by dispersing the lipids (10 mM, 20:1 EPC:Chol., Avanti Polar Lipids, Ala.) in phosphate buffer (5 mM, pH 7.4) with bubbling N2 for 5 min., followed by sonication (1.5 hr.) in a bath sonicator. The homogeneity of the preparation was checked by FPLC.
The micelles were obtained by dispersing the lipid (6 mM 1-myristoyl-2-hydroxy-sn-glycero-3-phosphatidyl choline, Avanti Polar Lipids, AL) in phosphate buffer (5 mM, pH 7.4) with bubbling N2 for 5 min., followed by vortexing.
To obtain the peptide-SUV complexes, SUVs were added to the peptide (5 μM in 5 mM phosphate buffer, pH 7.4) at a phospholipid-peptide molar ratio (Ri) of 30 or 50.
To obtain the peptide-micelle complexes, micelles were added to the peptide (5 μM in 5 mM phosphate buffer, pH 7.4) at a Ri of 100.
All spectra were recorded at 37° C. The stability of peptide 4 (SEQ ID NO:4) as a function of temperature (both free in buffer and in micelles) was determined by recording spectra at a series of different temperatures.
The degree of helicity of peptide 4 (SEQ ID NO:4) as a function of concentration was also determined.
The degree of helicity of the peptides in the various conditions was determined from the mean residue ellipticity at 222 nm (Chen et al., 1974, Biochemistry 13:3350-3359) or by comparing the CD spectra obtained to reference spectra available on databases (16 helical reference spectra from Provencher & Glockner, 1981, Biochemistry 20:33-37; denatured protein reference spectra from Venyaminov et al., 1993, Anal. Biochem. 214:17-24) using the CONTIN curve-fitting algorithm version 2DP, CD-1 pack (Aug. 1982) (Provencher, 1982, Comput. Phys. Commun. 27:213-227, 229-242). Acceptable fit was determined using the statistical analysis methodology provided by the CONTIN algorithm.

[2] = HDL cholesterol in rabbits after injection of phospholipid/peptide complexes; format: in vivo, Male New Zealand White rabbits
Description: Small discoidal particles consisting of phospholipid (DPPC) and peptide were prepared following the cholate dialysis method. The phospholipid was dissolved in chloroform and dried under a stream of nitrogen. The peptide was dissolved in buffer (saline) at a concentration of 1-2 mg/ml. The lipid film was redissolved in buffer containing cholate (43° C.) and the peptide solution was added at a 3:1 phospholipid/peptide weight ratio. The mixture was incubated overnight at 43° C. and then dialyzed at 43° C. (24 hr.), room temperature (24 hr.) and 4° C. (24 hr.), with three changes of buffer (large volumes) at temperature point. The complexes were filter sterilized (0.22 μm) for injection and storage at 4° C.
Male New Zealand White rabbits (2.5-3 kg) were injected intravenously with a dose of phospholipid/peptide complex (5 or 10 mg/kg bodyweight, expressed as peptide) in a single bolus injection not exceeding 10-15 ml. The animals were slightly sedated before the manipulations. Blood samples (collected on EDTA) were taken before and 5, 15, 30, 60, 240 and 1440 minutes after injection. The hematocrit (Hct) was determined for each sample. Samples were aliquoted and stored at −20° C. before analysis.
Plasma Lipids. The total plasma cholesterol, plasma triglycerides and plasma phospholipids were determined enzymatically using commercially available assays according to the manufacturer's protocols (Boehringer Mannheim, Mannheim, Germany and Biomerieux, 69280, Marcy-L'étoile, France).
Lipoprotein Profiles. The plasma lipoprotein profiles of the fractions obtained after the separation of the plasma into its lipoprotein fractions were determined by spinning in a sucrose density gradient. The fractions were collected and in each individual fraction the phospholipid and cholesterol content was measured enzymatically.

With PVLDLFRELLNELLEWLKQKLK [peptide 3] the “He (%) free” value [1] was 70%, the “He (%) SUVs” value [1] was 80% and the “He (%) TFE” value [1] was 95%. The “He (%) mics” value [1] was 95%, the “Increase (%) in HDL cholesterol” value ([2]; 10 mg/kg as peptide/DPPC complexes, 15 min) was 84% and the “Increase (%) in HDL cholesterol” value ([2]; 10 mg/kg as peptide/DPPC complexes, 30 min) was 71%. The “Increase (%) in HDL cholesterol” value ([2]; 10 mg/kg as peptide/DPPC complexes, 60 min) was 60% and the “Increase (%) in HDL cholesterol” value ([2]; 10 mg/kg as peptide/DPPC complexes, 240 min) was 14.5%.
For “31 (PVLDLFLELLNE[Aib]LEALKQKLK) [compound 31]”, the “He (%) free” value [1] was 49%, the “He (%) TFE” value [1] was 90% and the “He (%) mics” value [1] was 98%.
In the case of “148 (PVLELFENLLERLGDALQKKLK) [compound 148]”, the “He (%) free” value [1] is reported as 10%, the “He (%) SUVs” value [1] is reported as 23% and the “He (%) TFE” value [1] is reported as 80%. The “He (%) mics” value [1] was 76%.
With “240 (Ac-DWLKAFYDKVAEKLKEAF-NH2) [compound 240]” the “He (%) free” value [1] was 16%, the “He (%) SUVs” value [1] was 59% and the “He (%) TFE” value [1] was 57%. For the same substance, the “He (%) mics” value [1] was 68%.
For “35 (PVLDWFRELLNELLEALKQKLK) [compound 35]”, the “He (%) SUVs” value [1] was 61% and the “He (%) mics” value [1] was 59%.
For “EWLKAFYEKVLEKLKELF [peptide 248, reference compound]”, the “He (%) free” value [1] was 18%, the “He (%) SUVs” value [1] was 13% and the “He (%) mics” value [1] was 45%.
In the case of 223 (PVLDAFRELLEALAQLKK) [compound 223], the “He (%) free” value [1] is reported as 21%, the “He (%) SUVs” value [1] is reported as 23% and the “He (%) TFE” value [1] is reported as 51%. The “He (%) mics” value [1] was 56%.
For “DWLKAFYDKVAEKLKEAF [peptide 244, reference compound]”, the “He (%) free” value [1] was 9%, the “He (%) SUVs” value [1] was 13% and the “He (%) TFE” value [1] was 48%. For the same substance, the “He (%) mics” value [1] was 40%.
For 104 (PLLNELLEALKQKLK) [compound 104], the “He (%) free” value [1] was 21%, the “He (%) SUVs” value [1] was 29% and the “He (%) TFE” value [1] was 55%. For the same substance, the “He (%) mics” value [1] was 49%.
In the case of PVLDLFKELLNELLEALKQKLK [peptide 7], the “He (%) free” value [1] is reported as 77%, the “He (%) SUVs” value [1] is reported as 85% and the “He (%) TFE” value [1] is reported as 73%. The “He (%) mics” value [1] was 89%.
For “LDDLLQKWAEAFNQLLKK [peptide 237, reference compound]”, the “He (%) free” value [1] was 30%, the “He (%) SUVs” value [1] was 45% and the “He (%) mics” value [1] was 66%.
In the case of “PVLDLFRELLNELLEZLKQKLK (PVLDLFRELLNELLE[Nal]LKQKLK; not fully specified) [peptide 1, Z is Nal]”, the “He (%) free” value [1] is reported as 77%, the “He (%) SUVs” value [1] is reported as 81% and the “He (%) TFE” value [1] is reported as 69%. For the same substance, the “He (%) mics” value [1] was 85%, the “Increase (%) in HDL cholesterol” value ([2]; 5 mg/kg as peptide/DPPC complexes, 15 min) was 24.3% and the “Increase (%) in HDL cholesterol” value ([2]; 5 mg/kg as peptide/DPPC complexes, 30 min) was 95%. The “Increase (%) in HDL cholesterol” value ([2]; 5 mg/kg as peptide/DPPC complexes, 60 min) was 40.7% and the “Increase (%) in HDL cholesterol” value ([2]; 5 mg/kg as peptide/DPPC complexes, 240 min) was 29%.
For 55 (PLFRELLNELLEALKQKLK) [compound 55], the “He (%) free” value [1] was 38%, the “He (%) SUVs” value [1] was 78% and the “He (%) TFE” value [1] was 75%. The “He (%) mics” value [1] was 72%.
For “154 (PVLELFENLLERGLDALQKKLK) [compound 154]”, the “He (%) free” value [1] was 13%, the “He (%) SUVs” value [1] was 25% and the “He (%) TFE” value [1] was 80%. The “He (%) mics” value [1] was 76%.
For “62 (PVLDEWREKLNE[Aib]LEALKQKLK) [compound 62]”, the “He (%) free” value [1] was 15%, the “He (%) SUVs” value [1] was 43% and the “He (%) mics” value [1] was 85%.
For “113 (PVLDEFREKLNEPLEALKQKLK) [compound 113]”, the “He (%) free” value [1] was 6% and the “He (%) mics” value [1] was 22%.
In the case of “99 (KLKQKLAELLENLLERFLDLVP) [compound 99]”, the “He (%) free” value [1] is reported as 72%, the “He (%) SUVs” value [1] is reported as 80% and the “He (%) TFE” value [1] is reported as 80%. For the same substance, the “He (%) mics” value [1] was 88%.
With “PVLDEFREKLNERLEALKQKLK [peptide 109, reference compound]” the “He (%) free” value [1] was 19%, the “He (%) SUVs” value [1] was 23% and the “He (%) TFE” value [1] was 58%. The “He (%) mics” value [1] was 45%.
For “40 (PVLDLFNELLRELLEALQKKLK) [compound 40]”, the “He (%) free” value [1] was 66%, the “He (%) SUVs” value [1] was 79% and the “He (%) TFE” value [1] was 77%. For the same substance, the “He (%) mics” value [1] was 84%.
With 60 (PVLDLFRELLNELLEALKQ) [compound 60] the “He (%) free” value [1] was 39%, the “He (%) SUVs” value [1] was 66% and the “He (%) TFE” value [1] was 84%. The “He (%) mics” value [1] was 83%.
